In the supplement of paper PMC10567573:

B1: LRRC45 (parent)
chain: DLSAANEKNLLLQNQVDELERKFR

Variants of: B1
Experiment: protein stability index of a GFP-peptide fusion (GPS, HEK-293T) (PSI 1-6); higher = more stable
Conditions: c terminus: a fixed tail appended
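Further: lentivirally expressed fusions sorted by FACS into six bins by GFP to DsRed ratio, PSI derived from sequencing read proportions per bin multiplied by bin number.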

Variant	protein stability index
DLSLANEKNLLLQNQVDELERKFR	3.06
DLSSANEKNLLLQNQVDELERKFR	4.05
DLSAANYKNLLLQNQVDELERKFR	2.98
DLSAANDKNLLLQNQVDELERKFR	4.73
DLSAANGKNLLLQNQVDELERKFR	3.43
DLSAANCKNLLLQNQVDELERKFR	3.78
DLSAANMKNLLLQNQVDELERKFR	3.14
DLSAAEEKNLLLQNQVDELERKFR	4.69
DLSAAKEKNLLLQNQVDELERKFR	4.51
DLSAAVEKNLLLQNQVDELERKFR	4.38
DLSAAREKNLLLQNQVDELERKFR	4.61
DLSAANEKNLLLQNQFDELERKFR	3.38
DLSAANEKNLLLQNQHDELERKFR	4.08
DLLAANEKNLLLQNQVDELERKFR	3.51
DLNAANEKNLLLQNQVDELERKFR	4.07
DLSAANEKNLLLQNKVDELERKFR	4.06
DLSAANEKNLLLQNAVDELERKFR	3.57
DLSAANEKNLLLQNQVDELERKER	5.34
DLSAANEKNLLLQNQVDELERKTR	4.39
DLSAANEKNLLLQNQVDELERKNR	4.78
DLSAANEKNLLLQNQVDELERKAR	5.13
YLSAANEKNLLLQNQVDELERKFR	4.19
PLSAANEKNLLLQNQVDELERKFR	4.17
ILSAANEKNLLLQNQVDELERKFR	3.93

Variant	protein stability index
TLSAANEKNLLLQNQVDELERKFR	3.83
ELSAANEKNLLLQNQVDELERKFR	3.61
DLSAANEKNLFLQNQVDELERKFR	4.13
DLSAANEKNLGLQNQVDELERKFR	4.32
DLSAANEKNLRLQNQVDELERKFR	4.04
DLSAANEKNLYLQNQVDELERKFR	4.2
DLSAANEKNLWLQNQVDELERKFR	3.89
DLSAANEKNLLLGNQVDELERKFR	4.11
DLSAANEKNLLLLNQVDELERKFR	3.96
DLSAANEKNLLLSNQVDELERKFR	3.98
DLSAANEKNLLLKNQVDELERKFR	4.32
DLSAANEKNLLLDNQVDELERKFR	4.63
DLSAANEKNLLLPNQVDELERKFR	3.8
DLSAANEKNLLLRNQVDELERKFR	3.74
DLSANNEKNLLLQNQVDELERKFR	3.18
DLSAYNEKNLLLQNQVDELERKFR	3.87
DLSAANEKNLLLQNQVDEHERKFR	4.12
DLSAANEKNLLLQNQVDEVERKFR	4.31
DLSAANEKNLLLQNQVDECERKFR	4.16
DLSAANEKNLLLQNQVDEEERKFR	4.57
DLSAANEKNLLLQNQVDEFERKFR	3.76
DLSAANEKNLLLQNQVDELERPFR	3.88
DLSAANEKNLLLQNQVDELEREFR	4.26
DLSAANEKNLLLQNQVDELERSFR	4.15

Variant	protein stability index
DLSAANEKNLLLQNQVDELERQFR	4.06
DLSAANEKNLLLQNQVDELERIFR	3.01
DLSAANEKWLLLQNQVDELERKFR	3.79
DLSAANEKNALLQNQVDELERKFR	4.18
DLSAANEKNYLLQNQVDELERKFR	3.71
DLSAANEKNFLLQNQVDELERKFR	3.94
DLSAANEKNSLLQNQVDELERKFR	4.45
DLSAANEKNLLLQNQVDELETKFR	4
DLSAANEKNLLLQNQVDELECKFR	3.74
DLSAANEKNLLLQNQVDELELKFR	3.74
DLSAANEKNLLLQNQVDELEAKFR	4.09
DLSAANEKNLLLQNQVDELEWKFR	3.63
DLSAANEKNLLLQNQVEELERKFR	4.39
DLSAANEKNLLLQNQVQELERKFR	3.66
DLSAANEKNLLLQNQVWELERKFR	2.9
DLSAANEKNLLLQNQVDILERKFR	2.49
DLSAANEKNLLLQNQVDDLERKFR	5.06
DLSAANEKNLLLQNQVDALERKFR	3.57
DLSAANEKNLLLQNQVDNLERKFR	3.56
DLSAANEKNLLLQEQVDELERKFR	4.19
DLSAANEKNLLLQWQVDELERKFR	3.63
DLSAANEKNLLLQGQVDELERKFR	4.11
DLSAANEKNLLLQDQVDELERKFR	4.54
DLSAANEKNLLLQHQVDELERKFR	3.62

Variant	protein stability index
DLSAANEKNLLLQIQVDELERKFR	3.05
DLSAANEKNLLLQTQVDELERKFR	3.81
DLSAANEKNLLLQCQVDELERKFR	4
DISAANEKNLLLQNQVDELERKFR	3.27
DVSAANEKNLLLQNQVDELERKFR	3.89
DFSAANEKNLLLQNQVDELERKFR	4.54
DGSAANEKNLLLQNQVDELERKFR	4.78
DSSAANEKNLLLQNQVDELERKFR	4.86
DCSAANEKNLLLQNQVDELERKFR	4.76
DWSAANEKNLLLQNQVDELERKFR	4.27
DLSAANEKNLLLQNQVDELWRKFR	2.91
DLSAANEKNLLLQNQVDELERKFI	3.85
DLSAANEKNLLLQNQVDELERKFS	4.25
DLSAANEKNLLLQNQVDELERKFC	4.36
DLSAANENNLLLQNQVDELERKFR	4
DLSAANEQNLLLQNQVDELERKFR	4.12
DLSAANEGNLLLQNQVDELERKFR	4.17
DLSAANETNLLLQNQVDELERKFR	4.31
DLSAANERNLLLQNQVDELERKFR	4.15
DLSAANEMNLLLQNQVDELERKFR	4
DLSAANEKNLLNQNQVDELERKFR	4.01
DLSAANEKNLLIQNQVDELERKFR	4.25
